Reference: patent US20080044417A1 (MacroGenics, published 2008)

T1: FcγRIIB (CD32B) on Daudi cells (human, UniProt P31994 43-310)
T1 construct: whole, on cells; also called human B cell tumor line
T1 sequence (looked up): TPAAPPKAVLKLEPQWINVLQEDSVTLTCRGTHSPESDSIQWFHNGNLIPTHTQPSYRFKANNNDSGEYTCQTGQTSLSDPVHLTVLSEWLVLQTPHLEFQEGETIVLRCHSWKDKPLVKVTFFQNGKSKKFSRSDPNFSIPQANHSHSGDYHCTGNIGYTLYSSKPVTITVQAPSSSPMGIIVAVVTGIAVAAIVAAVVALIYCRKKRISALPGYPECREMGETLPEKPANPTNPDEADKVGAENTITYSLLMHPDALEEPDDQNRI

T2: soluble FcγIIA (UniProt P12318 34-217)
T2 construct: also called dimeric soluble FcγRIIa-Fc; FcγRIIA; not shown: the p
T2 sequence (looked up): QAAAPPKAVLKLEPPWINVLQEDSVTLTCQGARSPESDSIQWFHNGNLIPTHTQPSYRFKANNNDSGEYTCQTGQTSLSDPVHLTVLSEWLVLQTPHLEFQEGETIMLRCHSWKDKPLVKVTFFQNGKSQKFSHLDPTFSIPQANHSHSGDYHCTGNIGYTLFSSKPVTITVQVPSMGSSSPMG


How the values were obtained:
[1] = molecular target: T1, FcγRIIB (CD32B) on Daudi cells; experiment: FACS on Daudi cells, primary antibody 0.5 ug/ml, PE anti-human IgG Fc secondary
[2] = molecular target: T1, FcγRIIB (CD32B) on Daudi cells; experiment: FACS on Daudi cells, primary antibody 0.5 µg/ml, PE anti-human IgG Fc secondary
Protocol: (§1) Protocol for FACS analysis. Approximately 10⁶ Daudi cells were used for each antibody staining. Cells were washed once with PBS. Primary antibodies (Ch2B6, Hu2B6Hc/ch2B6Lc, human IgG1) were diluted into 0.5, 0.1, 0.02 μg/mL in PBS/1% BSA and 100 μL of diluted antibodies was transferred to the cells. After 30 mins incubation at 4° C., cells were washed once with 1 mL PBS/1% BSA. PE conjugated F(ab′)₂ fragment of goat anti human IgG Fc specific (Jackson ImmunoReseach, Inc.) was used as secondary antibody at 1:1000 dilution. After 30 mins incubation at 4° C., cells were washed once with 1 mL PBS/1% BSA. The cells were then resuspended in 500 μL of PBS/1% BSA and subjected to be FACS analysis.
(§2) Transfections of HEK-293 cells were performed using the following combinations: hu2B6HC/hu2B6LC; hu2B6HC/hu2B6LC(N50Y); hu2B6HC/hu2B6LC(N50Y,V51A); ch2B6HC/ch2B6LC. After three days in culture the amount of human IgG expressed was quantitated by an ELISA assay, using the method described above. Binding to dimeric soluble FcγRIIb-Fc was determined by ELISA assay. […] FACS analysis was then performed to measure the binding of the mAbs to Daudi cells (Table 8).

[3] = molecular target: T1, FcγRIIB (CD32B) on Daudi cells; experiment: FACS on Daudi cells, primary antibody 0.1 ug/ml, PE anti-human IgG Fc secondary
[4] = molecular target: T1, FcγRIIB (CD32B) on Daudi cells; experiment: FACS on Daudi cells, primary antibody 0.02 ug/ml, PE anti-human IgG Fc secondary
[5] = molecular target: T1, FcγRIIB (CD32B) on Daudi cells; experiment: FACS on Daudi cells, primary antibody 0.1 µg/ml, PE anti-human IgG Fc secondary
Protocol: as §1, §2

[6] = molecular target: T1, FcγRIIB (CD32B) on Daudi cells; experiment: FACS on Daudi cells, primary antibody 0.02 µg/ml, PE anti-human IgG Fc secondary
Protocol: as §1, §2

soluble FcγIIA = molecular target: T2, soluble FcγIIA; experiment: ELISA, 100 ng/well soluble FcγIIA coated
Protocol: Protocol for ELISA assay: 100 ng/well of soluble FcγIIA in carbonate buffer was coated on 96-well Maxisorp plates at 4° C. overnight. A serial of two-fold dilution of conditioned medium of Ch2B6; hu2B6HC/hu2B6LC; hu2B6HC/hu2B6LC(N50Y); hu2B6HC/hu2B6LC(N50Y,V51A); and purified IV.3 starting from 25 ng/well was added to the each well. The plate was incubated at room temperature for 1 hour. The binding was detected by HRP conjugated F(ab′)2 goat anti human IgG F(ab′)2 specific secondary antibody for Ch2B6 and all hu2B6 samples and HRP conjugated F(ab′)2 goat anti mouse IgG (H+L) secondary antibody for IV.3. After incubation with the secondary antibody for approximately 45 minutes, the plate was developed using a TMB substrate. After 5 mins incubation, the reaction was stopped by 1% H₂SO₄. The OD₄₅₀ nm was ready by SOFTmax program. Between each step, the plates were washed 3 times with PBS/0.1% Tween 20. The plates were blocked by 0.5% BSA in PBS/0.1% Tween 20 for 30 mins at room temperature before adding the serial diluted antibodies.

Molecule | Mean Fluorescence [1] | Mean Fluorescence [2] | Mean Fluorescence ([2]; record 2) | Mean Fluorescence [3] | Mean Fluorescence [4] | Mean Fluorescence [5] | Mean Fluorescence ([5]; record 2) | Mean Fluorescence [6] | Mean Fluorescence ([6]; record 2) | binding result (soluble FcγIIA)
Human IgG1 (antibody) | 6.07 | 9.49 | 1.23 | – | – | – | – | – | – | –
hu2B6HC/hu2B6LC(N50Y) (antibody, V domains shown, Human IgG; HEK-293 conditioned medium; also called Hu2B6 N50Y; Hu2B6N50Y) VH: QVQLVQSGAEVKKPGASVKVSCKASGYTFTNYWIHWVRQAPGQGLEWMGVIDPSDTYPNYNKKFKGRVTMTTDTSTSTAYMELRSLRSDDTAVYYCARNGDSDYYSGMDYWGQGTTVTVSS VL: EIVLTQSPDFQSVTPKEKVTITCRTSQSIGTNIHWYQQKPDQSPKLLIKYVSESISGVPSRFSGSGSGTDFTLTINSLEAEDAATYYCQQSNTWPFTFGGGTKVEIK | – | 191 | – | – | – | 135 | – | 40.1 | – | no binding

Results, then the molecule that gave them:

Mean Fluorescence [1] | Mean Fluorescence [2] | Mean Fluorescence ([2]; record 2) | Mean Fluorescence [3] | Mean Fluorescence [4] | Mean Fluorescence [5] | Mean Fluorescence ([5]; record 2) | Mean Fluorescence [6] | Mean Fluorescence ([6]; record 2) | binding result (soluble FcγIIA) | Molecule
552 | 193 | 647 | 515 | 168 | 141 | 512 | 45.6 | 173 | – | ch2B6 monoclonal antibody (ch2B6HC/ch2B6LC)
– | 167 | – | – | – | 134 | – | 46 | – | no binding | hu2B6HC/hu2B6LC(N50Y,V51A) (antibody, V domains shown, Human IgG; HEK-293 conditioned medium; also called Hu2B6N50Y, V51A; Hu2B6N50Y,V51A) VH: QVQLVQSGAEVKKPGASVKVSCKASGYTFTNYWIHWVRQAPGQGLEWMGVIDPSDTYPNYNKKFKGRVTMTTDTSTSTAYMELRSLRSDDTAVYYCARNGDSDYYSGMDYWGQGTTVTVSS VL: EIVLTQSPDFQSVTPKEKVTITCRTSQSIGTNIHWYQQKPDQSPKLLIKYASESISGVPSRFSGSGSGTDFTLTINSLEAEDAATYYCQQSNTWPFTFGGGTKVEIK
– | 202 | – | – | – | 174 | – | 58.6 | – | no binding | hu2B6HC/hu2B6LC monoclonal antibody (antibody, V domains shown, Human IgG (appropriate constant region segments); HEK-293 conditioned medium; also called humanized 2B6) VH: QVQLVQSGAEVKKPGASVKVSCKASGYTFTNYWIHWVRQAPGQGLEWMGVIDPSDTYPNYNKKFKGRVTMTTDTSTSTAYMELRSLRSDDTAVYYCARNGDSDYYSGMDYWGQGTTVTVSS VL: EIVLTQSPDFQSVTPKEKVTITCRTSQSIGTNIHWYQQKPDQSPKLLIKNVSESISGVPSRFSGSGSGTDFTLTINSLEAEDAATYYCQQSNTWPFTFGGGTKVEIK
